Measured values taken from the supplement of paper PMC10126150.
± gives the standard deviation of the averaged measurements.

System: ATP
Experiment: switch fluorescence ratio, 500 uM ATP over buffer (Cy3 cluster intensity, sum of 5 cycles each) (fold (ratio)); higher = stronger signal-on switching upon ATP binding; sequences stand for … in TCGTCGGCAGCGTCAGATGTGTATAAGAGACAGTTTTTTTTTTTTTTTTTTTTTTTTT…TC
Conditions: aptamer strand: ATP DNA aptamer (quencher-CACCTGGGGGAGTATTGCGGAGGAAGG + anchor), 100 nM annealed; ATP concentration: 500 uM
Summary of the method: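 Clusters with intensities outside 100-1000 RFU were excluded. The remaining Cy3-labelled switching-strand clusters on a modified Illumina MiSeq flow-cell had been annealed to 100 nM quencher-labelled ATP aptamer and imaged in selection buffer, then after 15 min with 500 uM ATP at 22 °C, for five cycles separated by NaOH stripping and re-annealing. The fluorescence ratio, averaged per switch-domain sequence, is each cluster's summed target-cycle Cy3 intensity over its summed buffer-cycle Cy3 intensity.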
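Note: ATP exposure 15 min at 22 °C before imaging.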

Sequence	switch fluorescence ratio
ATCGACCGGC	1.04 ± 0.071
ACGTTTGGTG	0.962 ± 0.03
CTGTTAGGGA	0.958 ± 0.03
GGTGGGTCGG	0.98 ± 0.036
CTGTATGCGG	1.02 ± 0.089
TTGCGGGGAA	1.03 ± 0.029
GTAAGGGGTG	1.01 ± 0.014
CTCGAGGGGG	1.18 ± 0.34
CTGGGGGCGA	1.04 ± 0.012
AATGCTCGGA	0.981 ± 0.02
TTAGTGGGTT	1.01 ± 0.024
GAGGTGCATG	0.949 ± 0.024
CGCTGAGCAC	1.18 ± 0.059
AAGGGGTCT	0.992 ± 0.024
TGCTTTGCCT	1.03 ± 0.013
GGGCAAATTG	0.968 ± 0.028
TTTCTGGAGA	1.05 ± 0.05
TAATAATTCG	1.01 ± 0.012
AGATGGAGCT	0.9875 ± 0.0055
TGGCTAGATA	0.973 ± 0.041
GTGCGAATGG	0.998 ± 0.016
CGTTAGCATT	1.17 ± 0.027
ATTTATCCAA	1 ± 0.039
CGATATGTTT	1.01 ± 0.079
ACTCGGCTTG	1.03 ± 0.023

Sequence	switch fluorescence ratio
TGGGAAGACC	1.02 ± 0.025
TTTCCCCATT	1.012 ± 0.0066
TGCGGGGGGA	1.03 ± 0.036
TCGAGAAAGG	0.98962 ± 0.00052
CGGTCTGTTA	1.04 ± 0.11
ATGGCAGGG	1.016 ± 0.0061
AAGTTTTAAG	1 ± 0.021
GTCACGGGGG	1.026 ± 0.0027
ATTCTGGGGG	1.04 ± 0.048
TAGTGATTAA	1.02 ± 0.044
AGGACCGTTT	0.991 ± 0.016
TATGACAGGA	0.995 ± 0.011
CTTTTTTCGA	1.04 ± 0.039
GATCTTTTTG	1.02 ± 0.014
TGAGAAGACT	1.03 ± 0.033
TCCTAGCGCC	2.02 ± 0.2
GGGTCGTAGC	1.01 ± 0.037
TAATTTTTGT	0.993 ± 0.026
TGCCGGAATA	1.38 ± 0.041
CTTTGGTTG	1.01 ± 0.016
ATATGGGGGA	0.99 ± 0.038
TCAGTGTGCT	0.98 ± 0.014
TTGATGGGAG	1.07 ± 0.12
CCTTTTGGCT	0.964 ± 0.014
GTTTGAGGGA	0.982 ± 0.035

Sequence	switch fluorescence ratio
TGAGGGGTGC	1.04 ± 0.029
TTGTGCAAGT	1.01 ± 0.013
AATGGCGCGC	0.992 ± 0.017
CGGAGGGGGA	0.973 ± 0.019
TGTTGATAGC	0.992 ± 0.037
GCGATATAGC	1.03 ± 0.027
CGGGTATGGC	1.02 ± 0.063
GCAAAGGGGG	0.9758 ± 0.006
GATGAAAGGG	1.22 ± 0.46
ACATGGGGTC	0.977 ± 0.012
AACCATTGCT	1.048 ± 0.0053
CCTGGGCCCA	1.09 ± 0.15
CTACGGGGTG	1.01 ± 0.046
CGACGGGGGG	1 ± 0.017
GGGTTAAATG	0.989 ± 0.028
AAATACTTTT	1.03 ± 0.021
AATTTGGCCT	1.05 ± 0.035
GCAGGGTGCG	1 ± 0.032
CCAGTGGCTA	1.016 ± 0.0033
TCGTCAGTG	0.991 ± 0.012
AGGGAGGAAA	1 ± 0.036
AGTATGTAGC	0.997 ± 0.032
AAGGTTTCC	1 ± 0.049
TATACGTTTC	1.04 ± 0.028
ATTTTTGAAT	1.01 ± 0.029

Sequence	switch fluorescence ratio
TGCGATTTAC	1.15 ± 0.024
AAGACAGGCC	1.03 ± 0.014
TGCCAATGTG	0.989 ± 0.013
GGGAAGAGTT	0.994 ± 0.012
TTCTGTCTGG	0.994 ± 0.021
TATCGACAAT	1.37 ± 0.47
GCGAGAATGT	0.9879 ± 0.0039
TGTGATTCTA	0.972 ± 0.017
GCGTTATACA	0.9979 ± 0.0039
CCCACTACAT	1.06 ± 0.035
TATAATGTGG	0.967 ± 0.015
CTGAGTGCTT	0.991 ± 0.0067
CAGGTCTGTG	1.025 ± 0.0022
ACATAAGGTT	1.03 ± 0.052
TGGTAGGGGT	1 ± 0.014
CAGGGGCCAA	0.979 ± 0.017
AACCTATTCT	1.15 ± 0.17
CGGAAATAAA	0.968 ± 0.025
CGTGTTGGCT	1.072 ± 0.0032
TAATGCAATA	1.67 ± 0.054
AGCACGTTAT	1.256 ± 0.012
CTTTAAGTCT	0.994 ± 0.039
TCTGCGTAAG	1.003 ± 0.0065
CAGGGAAGCG	0.991 ± 0.018
GGGTGGGCCC	0.995 ± 0.041

Sequence	switch fluorescence ratio
GGTCAGTTAT	0.99 ± 0.047
ATATCCCTGG	1.11 ± 0.013
AGAAGTGCGG	0.984 ± 0.032
CATTGGTGGC	0.992 ± 0.1
ATATCCCCCA	1.15 ± 0.11
GTAGGGAGCA	1.02 ± 0.022
ATTAGTGTTT	0.976 ± 0.027
CCAAATGTCG	0.982 ± 0.025
TCTGAGCGAC	1.57 ± 0.14
ACAAAGTAAA	1.01 ± 0.035
TCAAATAATC	1.01 ± 0.03
AGGTAACTGG	1.001 ± 0.00096
TTTTTTAGTG	0.981 ± 0.026
TCAAAAAATG	1.01 ± 0.042
ATAGGGCTGG	0.968 ± 0.024
ATCAGGGGGC	1.03 ± 0.036
TTTTTTTCAC	0.953 ± 0.058
CTAAATAGAA	0.983 ± 0.074
AGAACGGTGG	0.9693 ± 0.0096
CAAGGCATTC	1.32 ± 0.059
TTTTAGACAA	1.18 ± 0.17
GGGGACTGAG	0.983 ± 0.029
TGCGGTTGTT	0.999 ± 0.046
TCATACTGTG	1.03 ± 0.014
GGAAGATTTG	1.06 ± 0.055

Sequence	switch fluorescence ratio
TGGGTTCTGT	0.974 ± 0.0099
ATTTGACGGT	1.07 ± 0.11
GGGATTATTC	0.9725 ± 0.0041
ATGAACTAGG	0.991 ± 0.022
TAAGCATTTC	1.34 ± 0.11
AACTTAATG	0.9926 ± 0.0025
AATATAGTAT	0.998 ± 0.034
CAAGGGGTT	1.02 ± 0.068
TAGCCGGTCG	0.9846 ± 0.0023
CCGTTGGGGC	1.12 ± 0.059
GTGTGAAGGT	0.991 ± 0.032
AGACCTTTTA	1 ± 0.063
TGGGACGGTA	1 ± 0.022
TATTTGAAGT	0.9885 ± 0.0028
GAGGAAGTTA	1.06 ± 0.097
TTCTGTTAGC	1.03 ± 0.043
TATTACAAGT	1.01 ± 0.015
ACCTTTTACG	1.15 ± 0.072
CATGATTATT	0.986 ± 0.024
ATGGCCTCGG	1.02 ± 0.025
CGGCAGGGGT	1.11 ± 0.064
AAAAAAGGGG	1.87 ± 1.5
AAGGTCGTTT	0.9768 ± 0.003
CAATCTGTTA	0.989 ± 0.027
TGATTGGGAC	0.9673 ± 0.0074

Sequence	switch fluorescence ratio
AAAAGTGACT	0.982 ± 0.049
GGGAGAGAGG	0.984 ± 0.011
AGGATTTT	0.955 ± 0.066
AGTGGCGTGT	0.988 ± 0.022
ATGCCGGGGC	1.02 ± 0.037
CAGTGACGGT	1.03 ± 0.021
AGCGTAGGGG	0.94 ± 0.033
GGGAATATTT	0.995 ± 0.0097
TATGGCAACC	1.03 ± 0.061
AGTAGATTTT	0.986 ± 0.04
TGTTAGGGCT	0.918 ± 0.021
AAGGATGGTG	0.957 ± 0.069
GGGTAAAGTG	0.9928 ± 0.0032
ATTGTGTCTG	1 ± 0.042
AGCGGATGCA	0.985 ± 0.02
AAGGGGACGG	1 ± 0.03
TTTGCACCCT	1.03 ± 0.041
GAATAGTGGG	1.006 ± 0.005
GGGAGCCGAG	1 ± 0.03
AGGGGGTTGA	1.03 ± 0.032
AGGGGGATGG	0.996 ± 0.013
AAGGTGGATA	1.11 ± 0.032
ATAGGAGCGT	0.979 ± 0.038
TTATCGCTTA	1.04 ± 0.098
ATATCTATAG	0.958 ± 0.018

Sequence	switch fluorescence ratio
TGAATGGTCG	1.05 ± 0.036
TAGTATAGGC	1.14 ± 0.17
ACAGCATGCC	0.997 ± 0.013
CGGCGCTTCA	1.063 ± 0.0061
AAGGGTACCT	1.018 ± 0.0077
TGCGGGGTTT	1.02 ± 0.054
ATTAATTAGG	0.989 ± 0.015
ATGTATAGGG	1 ± 0.0019
CTATGCGGAA	1.06 ± 0.038
CAAGGAATGG	0.995 ± 0.035
TTTTTATTTA	0.991 ± 0.025
CAAATTTGGC	0.986 ± 0.027
TTTTGCCTTG	0.967 ± 0.043
GAGAGGAGAG	0.998 ± 0.035
CGGGGATGTG	1.02 ± 0.025
CGTTGGTTCC	1.034 ± 0.0058
GGGTATGCGT	0.975 ± 0.026
GGGTGACCAC	0.986 ± 0.0044
AGGCCTTGTG	0.985 ± 0.025
ACTGGGTATT	0.963 ± 0.061
GGGGAAGACG	1.01 ± 0.082
ATAGGAGGGA	1.01 ± 0.017
CGAGGCAGGT	1.51 ± 0.093
TTGGGGACGT	1.01 ± 0.042
GAATTACGGG	1.02 ± 0.023
